Data on one substance can be found in article PMC4011586.

This experiment addresses human platelet-derived growth factor alpha receptor (human (endogenous in U373)) (UniProt P16234).
Sequence of UniProt P16234 (P16234 24-1089): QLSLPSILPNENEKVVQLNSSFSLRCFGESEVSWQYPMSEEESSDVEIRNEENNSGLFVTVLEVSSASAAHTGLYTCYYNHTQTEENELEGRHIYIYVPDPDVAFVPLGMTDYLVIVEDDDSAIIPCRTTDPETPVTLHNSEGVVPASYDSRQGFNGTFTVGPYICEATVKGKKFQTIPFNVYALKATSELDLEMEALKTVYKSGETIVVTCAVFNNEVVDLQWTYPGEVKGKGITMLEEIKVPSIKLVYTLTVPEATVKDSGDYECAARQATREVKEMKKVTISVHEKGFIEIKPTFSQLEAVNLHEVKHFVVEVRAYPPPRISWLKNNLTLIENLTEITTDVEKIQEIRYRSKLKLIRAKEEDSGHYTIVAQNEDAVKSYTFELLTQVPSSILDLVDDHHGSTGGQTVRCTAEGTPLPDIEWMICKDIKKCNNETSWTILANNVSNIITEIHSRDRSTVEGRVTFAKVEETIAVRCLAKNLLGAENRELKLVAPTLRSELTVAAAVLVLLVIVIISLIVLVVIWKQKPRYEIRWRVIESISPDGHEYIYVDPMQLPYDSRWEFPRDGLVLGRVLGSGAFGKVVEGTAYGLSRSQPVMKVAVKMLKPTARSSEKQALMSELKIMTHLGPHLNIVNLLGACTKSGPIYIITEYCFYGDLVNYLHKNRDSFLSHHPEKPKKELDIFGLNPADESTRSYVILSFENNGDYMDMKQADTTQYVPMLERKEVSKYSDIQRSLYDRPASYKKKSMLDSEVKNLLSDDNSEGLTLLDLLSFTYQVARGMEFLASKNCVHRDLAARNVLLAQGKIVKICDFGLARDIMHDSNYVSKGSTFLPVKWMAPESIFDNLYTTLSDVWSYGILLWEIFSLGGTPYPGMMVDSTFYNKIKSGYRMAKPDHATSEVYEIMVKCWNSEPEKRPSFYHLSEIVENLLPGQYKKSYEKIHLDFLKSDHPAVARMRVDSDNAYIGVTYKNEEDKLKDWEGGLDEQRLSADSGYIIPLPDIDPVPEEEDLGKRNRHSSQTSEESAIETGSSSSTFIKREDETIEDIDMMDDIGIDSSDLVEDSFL

“recombinant HCMV glycoprotein B (from UniProt P13201 23-907) (ligand)”: the phosphorylation of PDGFRα in U373 cells stimulated with recombinant gB, cell based ELISA, relative to PDGF-AA (100%) came to 50%.
